Target: L-ferritin-M6A (mouse L-ferritin with the Mms6 iron-binding segment M6A at its C-terminus behind a glycine spacer), with the N-terminal 6-His tag (mouse | Magnetospirillum magneticum AMB-1) (UniProt Q2W8R5)
Assay: SEC; HiLoad 26/60 Superdex 200; 20 mM Bis-Tris pH 5.8, 500 mM KCl, 10% glycerol; oligomer judged by elution volume

- stoichiometry N: 24
Substance: L-ferritin-M6A (mouse L-ferritin with the Mms6 iron-binding segment M6A at its C-terminus behind a glycine spacer), with the N-terminal 6-His tag (from UniProt Q2W8R5 116-127)
